# Results reported in patent US20240117018A1.
# How the values were obtained:
# Assay in all cases: cell-based or functional assay
# [1] = molecular target: CAP210.2.00.E8 Env pseudovirus (HIV-1)
# [2] = molecular target: Q842.d12 Env pseudovirus (HIV-1)
# [3] = molecular target: CNE20 Env pseudovirus (HIV-1)
# [4] = molecular target: ZM233M.PB6 Env pseudovirus (HIV-1)
# [5] = molecular target: ZM197M.PB7 Env pseudovirus (HIV-1)
# [6] = molecular target: 3365.v2.c2 Env pseudovirus (HIV-1)
# [7] = molecular target: Q769.d22 Env pseudovirus (HIV-1)
# [8] = molecular target: 6240_08_TA5_4622 Env pseudovirus (HIV-1)
# [9] = molecular target: ZM247v1(Rev-) Env pseudovirus (HIV-1)
# [10] = molecular target: 1054_07_TC4_1499 Env pseudovirus (HIV-1)
# [11] = molecular target: 1006_11_C3_1601 Env pseudovirus (HIV-1)
# [12] = molecular target: RHPA4259.7 Env pseudovirus (HIV-1)
# [13] = molecular target: CNE17 Env pseudovirus (HIV-1)
# [14] = molecular target: Ce2060_G9 Env pseudovirus (HIV-1)
# [15] = molecular target: SC422661.8 Env pseudovirus (HIV-1)
# [16] = molecular target: Ce704809221_1B3 Env pseudovirus (HIV-1)
# [17] = molecular target: ZM214M.PL15 Env pseudovirus (HIV-1)
# [18] = molecular target: PVO.4 Env pseudovirus (HIV-1)
# [19] = molecular target: 9004SS_A3_4 Env pseudovirus (HIV-1)
# [20] = molecular target: Ce0393_C3 Env pseudovirus (HIV-1)
# [21] = molecular target: Du172.17 Env pseudovirus (HIV-1)
# [22] = molecular target: CNE58 Env pseudovirus (HIV-1)
# [23] = molecular target: Ce1172_H1 Env pseudovirus (HIV-1)
# [24] = molecular target: 0260.v5.c36 Env pseudovirus (HIV-1)
# [25] = molecular target: CAP45.2.00.G3 Env pseudovirus (HIV-1)
# [26] = molecular target: Ce1176_A3 Env pseudovirus (HIV-1)
# [27] = molecular target: QH0692.42 Env pseudovirus (HIV-1)
# [28] = molecular target: HIV-16845-2.22 Env pseudovirus (HIV-1)
# [29] = molecular target: CNE53 Env pseudovirus (HIV-1)
# [30] = molecular target: 1056_10_TA11_1826 Env pseudovirus (HIV-1)
# [31] = molecular target: WITO4160.33 Env pseudovirus (HIV-1)
# [32] = molecular target: CNE30 Env pseudovirus (HIV-1)
# [33] = molecular target: 62357_14_D3_4589 Env pseudovirus (HIV-1)
# [34] = molecular target: CNE21 Env pseudovirus (HIV-1)
# [35] = molecular target: 249M B10 Env pseudovirus (HIV-1)
# [36] = molecular target: SC05_8C11_2344 Env pseudovirus (HIV-1)
binder,measurement,setting,value
"N49P23 (antibody, V domains shown) VH: QVRLVQSGAGARKTGASMKLSCSTSGYTFTTHHGHFINWVRQARGQGLEWMGWMNPMTGQMNIEGKFQGRVTLTRDIYSDTAYMEMTRLTTGDTGTYYCARGDFGQNYPFHYWGQGSLVIVSS VL: LSALTQPASVSGSPGQSVTISCSGTNRYLVSWYQQHPDKAPKLIIYDDNKRPSGISDRFSASRPDDTASLTISGLQTGDEATYWCASYERFGGGTRLTVLS",IC50,[1],> 50 µg/mL
same,IC80,[1],> 50 µg/mL
same,MPI,[1],2
same,IC50,[2],0.007 µg/mL
same,IC80,[2],0.022 µg/mL
same,MPI,[2],100
same,IC50,[3],45.4 µg/mL
same,IC80,[3],> 50 µg/mL
same,MPI,[3],51
same,IC50,[4],> 50 µg/mL
same,IC80,[4],> 50 µg/mL
same,MPI,[4],14
same,IC50,[5],0.1 µg/mL
same,IC80,[5],0.385 µg/mL
same,MPI,[5],100
same,IC50,[6],0.017 µg/mL
same,IC80,[6],0.053 µg/mL
same,MPI,[6],100
same,IC50,[7],0.005 µg/mL
same,IC80,[7],0.025 µg/mL
same,MPI,[7],100
same,IC50,[8],0.215 µg/mL
same,IC80,[8],1 µg/mL
same,MPI,[8],100
same,IC50,[9],> 50 µg/mL
same,IC80,[9],> 50 µg/mL
same,MPI,[9],24
same,IC50,[10],0.272 µg/mL
same,IC80,[10],1.21 µg/mL
same,MPI,[10],100
same,IC50,[11],0.015 µg/mL
same,IC80,[11],0.054 µg/mL
same,MPI,[11],100
same,IC50,[12],0.01 µg/mL
same,IC80,[12],0.04 µg/mL
same,MPI,[12],100
same,IC50,[13],0.221 µg/mL
same,IC80,[13],0.809 µg/mL
same,MPI,[13],100
same,IC50,[14],0.18 µg/mL
same,IC80,[14],0.849 µg/mL
same,MPI,[14],99
same,IC50,[15],0.069 µg/mL
same,IC80,[15],0.245 µg/mL
same,MPI,[15],100
same,IC50,[16],0.083 µg/mL
same,IC80,[16],0.643 µg/mL
same,MPI,[16],100
same,IC50,[17],0.061 µg/mL
same,IC80,[17],0.614 µg/mL
same,MPI,[17],100
same,IC50,[18],0.087 µg/mL
same,IC80,[18],0.43 µg/mL
same,MPI,[18],100
same,IC50,[19],0.043 µg/mL
same,IC80,[19],0.223 µg/mL
same,MPI,[19],100
same,IC50,[20],> 50 µg/mL
same,IC80,[20],> 50 µg/mL
same,MPI,[20],29
same,IC50,[21],> 50 µg/mL
same,IC80,[21],> 50 µg/mL
same,MPI,[21],45
same,IC50,[22],> 50 µg/mL
same,IC80,[22],> 50 µg/mL
same,MPI,[22],9
same,IC50,[23],> 50 µg/mL
same,IC80,[23],> 50 µg/mL
same,MPI,[23],0
same,IC50,[24],0.261 µg/mL
same,IC80,[24],0.919 µg/mL
same,MPI,[24],100
same,IC50,[25],> 50 µg/mL
same,IC80,[25],> 50 µg/mL
same,MPI,[25],0
same,IC50,[26],0.297 µg/mL
same,IC80,[26],1.38 µg/mL
same,MPI,[26],100
same,IC50,[27],0.557 µg/mL
same,IC80,[27],2.51 µg/mL
same,MPI,[27],100
same,IC50,[28],> 50 µg/mL
same,IC80,[28],> 50 µg/mL
same,MPI,[28],20
same,IC50,[29],0.026 µg/mL
same,IC80,[29],0.095 µg/mL
same,MPI,[29],100
same,IC50,[30],0.075 µg/mL
same,IC80,[30],0.483 µg/mL
same,MPI,[30],100
same,IC50,[31],0.045 µg/mL
same,IC80,[31],0.205 µg/mL
same,MPI,[31],100
same,IC50,[32],0.143 µg/mL
same,IC80,[32],0.68 µg/mL
same,MPI,[32],100
same,IC50,[33],0.057 µg/mL
same,IC80,[33],0.76 µg/mL
same,MPI,[33],95
same,IC50,[34],> 50 µg/mL
same,IC80,[34],> 50 µg/mL
same,MPI,[34],0
same,IC50,[35],> 50 µg/mL
same,IC80,[35],> 50 µg/mL
same,MPI,[35],20
same,IC50,[36],0.133 µg/mL
same,IC80,[36],0.548 µg/mL
same,MPI,[36],100
"N49P22 (antibody, V domains shown) V domain 1: HIQLLQSGPQVKKSGDTVRISCETSGYNFVDSRIHWVRQTPEKRLRWMGWINPLQGGVNYAPEFQGRIRMTRDTFIDTVYVDLSGLTPADTAYYYCARGIDGKSYPFHFWGHGTRVTVFS V domain 2: RFALTQPASVSGSPGQTITITCAGGSVSWFHFPPGKTPRLIIYESSKRPSGVSPRFSGSQSGSTASLIISGLQSDDEGTYFCSILEFFGRGTLVTVLS",IC50,[1],> 50 µg/mL
same,IC80,[1],> 50 µg/mL
same,MPI,[1],6
same,IC50,[2],0.079 µg/mL
same,IC80,[2],0.359 µg/mL
same,MPI,[2],100
same,IC50,[3],> 50 µg/mL
same,IC80,[3],> 50 µg/mL
same,MPI,[3],18
same,IC50,[4],> 50 µg/mL
same,IC80,[4],> 50 µg/mL
same,MPI,[4],2
same,IC50,[5],2.58 µg/mL
same,IC80,[5],25.1 µg/mL
same,MPI,[5],84
same,IC50,[6],0.254 µg/mL
same,IC80,[6],0.857 µg/mL
same,MPI,[6],98
same,IC50,[7],0.043 µg/mL
same,IC80,[7],0.259 µg/mL
same,MPI,[7],100
same,IC50,[8],2.33 µg/mL
same,IC80,[8],9.76 µg/mL
same,MPI,[8],93
same,IC50,[9],> 50 µg/mL
same,IC80,[9],> 50 µg/mL
same,MPI,[9],11
same,IC50,[10],0.654 µg/mL
same,IC80,[10],2.89 µg/mL
same,MPI,[10],100
same,IC50,[11],0.898 µg/mL
same,IC80,[11],14.7 µg/mL
same,MPI,[11],83
same,IC50,[12],0.637 µg/mL
same,IC80,[12],5.6 µg/mL
same,MPI,[12],92
same,IC50,[13],46.3 µg/mL
same,IC80,[13],> 50 µg/mL
same,MPI,[13],53
same,IC50,[14],> 50 µg/mL
same,IC80,[14],> 50 µg/mL
same,MPI,[14],19
same,IC50,[15],0.12 µg/mL
same,IC80,[15],0.544 µg/mL
same,MPI,[15],100
same,IC50,[16],15.8 µg/mL
same,IC80,[16],> 50 µg/mL
same,MPI,[16],60
same,IC50,[17],> 50 µg/mL
same,IC80,[17],> 50 µg/mL
same,MPI,[17],25
same,IC50,[18],0.433 µg/mL
same,IC80,[18],1.49 µg/mL
same,MPI,[18],100
same,IC50,[19],> 50 µg/mL
same,IC80,[19],> 50 µg/mL
same,MPI,[19],42
same,IC50,[20],> 50 µg/mL
same,IC80,[20],> 50 µg/mL
same,MPI,[20],12
same,IC50,[21],> 50 µg/mL
same,IC80,[21],> 50 µg/mL
same,MPI,[21],4
same,IC50,[22],28.4 µg/mL
same,IC80,[22],> 50 µg/mL
same,MPI,[22],57
same,IC50,[23],> 50 µg/mL
same,IC80,[23],> 50 µg/mL
same,MPI,[23],0
same,IC50,[24],1.67 µg/mL
same,IC80,[24],14.4 µg/mL
same,MPI,[24],93
same,IC50,[25],> 50 µg/mL
same,IC80,[25],> 50 µg/mL
same,MPI,[25],0
same,IC50,[26],> 50 µg/mL
same,IC80,[26],> 50 µg/mL
same,MPI,[26],23
same,IC50,[27],0.592 µg/mL
same,IC80,[27],2.02 µg/mL
same,MPI,[27],100
same,IC50,[28],4.6 µg/mL
same,IC80,[28],41.9 µg/mL
same,MPI,[28],87
same,IC50,[29],0.779 µg/mL
same,IC80,[29],5.11 µg/mL
same,MPI,[29],93
same,IC50,[30],2.99 µg/mL
same,IC80,[30],> 50 µg/mL
same,MPI,[30],69
same,IC50,[31],4.86 µg/mL
same,IC80,[31],> 50 µg/mL
same,MPI,[31],74
same,IC50,[32],> 50 µg/mL
same,IC80,[32],> 50 µg/mL
same,MPI,[32],30
same,IC50,[33],> 50 µg/mL
same,IC80,[33],> 50 µg/mL
same,MPI,[33],13
same,IC50,[34],> 50 µg/mL
same,IC80,[34],> 50 µg/mL
same,MPI,[34],0
same,IC50,[35],> 50 µg/mL
same,IC80,[35],> 50 µg/mL
same,MPI,[35],4
same,IC50,[36],0.251 µg/mL
same,IC80,[36],2.16 µg/mL
same,MPI,[36],97
